The values below come from patent US20130302347A1 (Genentech, published 2013).

For assay [1], the target named is T1, Human TMEM149 on the cell surface (transfected HEK293T cells; human leukocytes) (human, UniProt Q9H665 23-355).
T1 construct: also called hTMEM149; MK61
T1 sequence: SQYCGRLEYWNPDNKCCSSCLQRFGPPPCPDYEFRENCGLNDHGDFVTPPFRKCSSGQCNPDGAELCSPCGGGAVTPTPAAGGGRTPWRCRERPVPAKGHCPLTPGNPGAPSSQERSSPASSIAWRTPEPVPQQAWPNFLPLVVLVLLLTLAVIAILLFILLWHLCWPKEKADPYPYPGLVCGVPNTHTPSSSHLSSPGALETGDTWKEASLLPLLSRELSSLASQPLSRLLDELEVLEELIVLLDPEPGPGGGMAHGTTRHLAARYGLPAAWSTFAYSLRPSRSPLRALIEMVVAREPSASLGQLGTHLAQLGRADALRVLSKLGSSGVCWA
Description: radioligand competition assay; 125I-FLAG-IGFL1 against unlabelled ligand on HEK293T cells stably expressing human TMEM149. The method, then:
(§1) To determine the affinity of IGFL with TMEM149, ligands were iodinated with ¹²⁵I using the lactoperoxidase method and free ¹²⁵I-Na was removed from the labeled protein by gel filtration using a NAP-5 column. 50 μL competition reaction mixtures containing a fixed concentration of iodinated ligand and decreasing concentrations of serially diluted, unlabeled ligand were placed into 96-well plates in triplicate. To each well, HEK293T cells stably expressing human or mouse TMEM149 were added at a density of 100,000 cells in 0.2 mL of binding buffer (Dulbecco's Modified Eagle Medium with 1% bovine serum albumin, 50 mM HEPES pH 7.2 and 2 mM sodium azide). The final concentration of the iodinated ligand with cells in each competition reaction was 100 pM (100,000 cpms per 0.25 mL). The final concentration of the unlabeled ligand with cells in the competition reaction varied, starting at 500 nM and then decreasing by 1- to 2-fold dilution for ten concentrations, and included a zero-added, buffer-only sample. Competition reactions were incubated for 2 hours at room temperature, then transferred to a Millipore Multiscreen filter plate (Billerica, Mass.) and washed 4 times with binding buffer to separate the free from bound iodinated antibody. The filters were counted on a Wallac Wizard 1470 gamma counter (PerkinElmer Life and Analytical Sciences Inc.; Wellesley, Mass.).
A general note: Loss of bound radioactivity is the signal in a displacement assay; it reports binding, not function.

The target of assay [2] is T2, DR4 on transfected 293T cells (UniProt O00220 24-468, limits assumed).
T2 construct: whole, on cells
T2 sequence (looked up): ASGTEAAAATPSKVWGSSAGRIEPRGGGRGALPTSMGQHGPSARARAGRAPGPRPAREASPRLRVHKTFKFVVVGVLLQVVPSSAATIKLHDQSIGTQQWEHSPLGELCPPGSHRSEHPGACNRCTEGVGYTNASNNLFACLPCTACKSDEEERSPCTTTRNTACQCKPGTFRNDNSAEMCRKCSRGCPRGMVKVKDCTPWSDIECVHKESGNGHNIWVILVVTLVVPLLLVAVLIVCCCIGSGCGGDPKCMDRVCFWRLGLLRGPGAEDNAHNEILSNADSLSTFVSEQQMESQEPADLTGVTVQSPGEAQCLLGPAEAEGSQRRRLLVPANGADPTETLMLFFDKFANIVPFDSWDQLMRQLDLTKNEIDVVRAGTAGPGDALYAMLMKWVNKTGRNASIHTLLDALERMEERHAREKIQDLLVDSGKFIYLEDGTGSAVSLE
The assay can be described thus: flow cytometry of transfected 293T cells, FLAG-IGFL1 detected with fluorescent anti-FLAG.

Assay [3] concerns the target T3, nerve growth factor receptor (NGFR) on transfected 293T cells (UniProt P08138 29-427, limits assumed).
T3 construct: whole, on cells
T3 sequence (looked up): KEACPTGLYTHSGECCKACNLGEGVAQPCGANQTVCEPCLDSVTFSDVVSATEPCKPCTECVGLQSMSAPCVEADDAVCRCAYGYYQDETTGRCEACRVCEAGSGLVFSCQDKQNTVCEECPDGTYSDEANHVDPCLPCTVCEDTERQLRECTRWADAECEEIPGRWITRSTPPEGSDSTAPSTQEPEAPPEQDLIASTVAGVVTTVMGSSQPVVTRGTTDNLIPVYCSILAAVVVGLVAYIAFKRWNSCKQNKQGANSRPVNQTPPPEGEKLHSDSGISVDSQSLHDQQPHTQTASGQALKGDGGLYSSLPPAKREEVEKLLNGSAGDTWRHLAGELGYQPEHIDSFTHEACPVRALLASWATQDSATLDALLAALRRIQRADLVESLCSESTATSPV
The assay is described as above.

Assay [4] has as its target T4, TMEM149-Fc (human TMEM149 extracellular domain with C-terminal human IgG1 Fc) (human, UniProt Q9H665 23-160).
T4 construct: also called recombinant human TMEM149-Fc; Fc-TMEM149; not shown: human IgG1 Fc, C-terminal
T4 sequence: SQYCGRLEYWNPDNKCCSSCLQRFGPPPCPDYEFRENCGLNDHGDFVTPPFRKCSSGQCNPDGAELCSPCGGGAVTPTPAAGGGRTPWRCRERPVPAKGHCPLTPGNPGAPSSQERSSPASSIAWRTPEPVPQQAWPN
The assay can be described thus: SPR (BiaCore 3000); TMEM149-Fc captured by anti-human IgG, 1:1 Langmuir fit. How it is done:
(§2) Surface plasmon resonance (SPR) was run on a BiaCore 3000 (GE healthcare, Piscataway, N.J.) at 25° C. using anti-human IgG F(ab′)₂ (Jackson Immunoresearch, West Grove, Pa.) amine-coupled to BiaCore CM5 sensor chips. For kinetic analysis of protein interactions, Fc-fusion proteins at 25 μg/ml were first captured onto sensor chips by injecting them for 3 min at 5 μl/min. Then, test proteins diluted to their indicated concentrations in HBS-P buffer (0.01 M Hepes, pH 7.4 0.15 M NaCl 0.005% Surfactant P20) were injected for 3 min at 30 μl/min. Dissociation in HBS-P buffer alone was then measured at a flow rate of […]. Sensor chips surfaces were regenerated by injecting 10 mM glycine pH 1.5 for 30 s after each cycle. Kinetic parameters were determined by fitting the data to a 1:1 Langmuir model using the Biacore 3000 evaluation software (GE Healthcare).
On the technique in general: In SPR one partner is held on a chip, and binding of the other changes the refractive index at the surface.

Assay [5] deals with T1, Human TMEM149 on the cell surface …. The assay can be described thus: radioligand competition: 125I-FLAG-IGFL1 (100 pM) on HEK293T cells expressing human TMEM149, unlabelled FLAG-IGFL1 varied. The method, then: B) FACS analysis of IFGL1 binding to cells expressing surface TMEM149. […] Reference is made to Examples 10 and 11.
as §1, with “Competition reactions were incubated for 2 hours at room temperature, then transferred to a Millipore Multiscreen filter plate (Billerica, Mass.) and washed 4 times with binding buffer to separate the free from bound iodinated antibody.” left out

For assay [6], the target named is T4, TMEM149-Fc (human TMEM149 extracellular …). The assay can be described thus: SPR, TMEM149-Fc captured on the chip. How it is done: as §2
The target in assay [7] is T2, DR4 on transfected 293T cells. The assay can be described thus: flow cytometry of transfected 293T cells, FLAG-IGFL3 detected with fluorescent anti-FLAG. A general note: In flow cytometry, cells or beads pass a laser one at a time.
Assay [8] deals with T3, nerve growth factor receptor (NGFR) on …. The description is as above.
The target of assay [9] is T4, TMEM149-Fc (human TMEM149 extracellular …). Description: SPR screen of TNF-like ligands. The method, then: as §2
Assay [10] has the same target. Description: SPR, binding to immobilised TMEM149-Fc (7,145 RU per paragraph 67). How it is done: as §2

B1: FLAG-IGFL1 (recombinant human IGFL1 with FLAG epitope tag) (ligand)
chain: APVAPMTPYLMLCQPHKRCGDKFYDPLQHCCYDDAVVPLARTQTCGNCTFRVCFEQCCPWTFMVKLINQNCDSARTSDDRLCRSVS
notes: Made in CHO cells; Signal peptide cleavage is predicted only; also called hIGFL1; IGFL1-FLAG; not shown: printed both as FLAG-IGFL1 and IGFL1-FLAG, so the end that carries the tag is not
For B1, the Kd in assay [1] worked out at 0.31 nM; in assay [4] it was 1.2 nM. In addition, the binding result in [2] and in assay [3] was “no binding” in each case. Besides, the “IC50 (read off the curve)” value in assay [5] was approximately 0.5 nM.

B2: FLAG-IGFL3 (recombinant human IGFL3 with FLAG epitope tag) (ligand, not shown: small tags and cut ends)
chain: TTDAPVGSGLWLCQPTPRCGNKIYNPSEQCCYDDAILSLKETRRCGSTCTFWPCFELCCPESFGPQQKFLVKLRVLGMKSQCHLSPISRSCTRNRRHVLYP
notes: also called hIGFL3
In assay [6], B2 registered a Kd of 0.08 nM. Further, the binding result in assay [7] and in assay [8] was “no binding” in each case.

B3: OX40L (ligand, UniProt P23510 51-183, looked up)
chain: QVSHRYPRIQSIKVQFTEYKKEKGFILTSQKEDEIMKVQNNSVIINCDGFYLISLKGYFSQEVNISLHYQKDEEPLFQLKKVRSVNSLMVASLTYKDKVYLNVTTDNTSLDDFHVNGGELILIHQNPGEFCVL
Regarding B3, the binding result in assay [9] was “no binding”.

B4: GITRL (ligand, UniProt Q9UNG2 52-177, looked up)
chain: ETAKEPCMAKFGPLPSKWQMASSEPPCVNKVSDWKLEILQNGLYLIYGQVAPNANYNDVAPFEVRLYKNKDMIQTLTNKSKIQNVGGTYELHVGDTIDLIFNSEHQVLKNNTYWGIILLANPQFIS
Turning to B4, the binding result in assay [9] is listed as “no binding”.

B5: FLAG-IGFL4 (recombinant human IGFL4 with FLAG epitope tag) (ligand, not shown: small tags and cut ends)
chain: EGVTDLRLWLCQPAPRCGEWTYNPLEQCCDDGVILDLNQTRLCGSSCTFWPCFQHCCLESLGSQNQTVVRFKVPGMKPDCKSSPITRICAQEYHPKSPVSRSDLI
As for B5, the binding result in assay [10] is “no binding (tested: 108 µg/ml)”.

B6: FLAG-IGFL2 (recombinant human IGFL2 with FLAG epitope tag) (ligand, not shown: small tags and cut ends)
chain: PAGSEPWLCQPAPRCGDKIYNPLEQCCYNDAIVSLSETRQCGPPCTFWPCFELCCLDSFGLTNDFVVKLKVQGVNSQCHSSPISSKCESRRRFP
notes: Signal peptide cleavage is predicted only
In the case of B6, the binding result in [10] is listed as “binds”.

For orientation: Kd means the concentration at which binding is half-saturated.
